Residue numbers refer to the chain shown, from its start.

Consider 6 proteins from the PETadex activity labels (doi:10.1002/cbic.201800097).

Substrate in series [1]: PET
Briefly: Proxy for plastic degradation [Released monomer concentration (HPLC/LC-MS) (TPA)].

Substrate in series [2]: PET
Briefly: Proxy for plastic degradation [Released monomer concentration (HPLC/LC-MS) (MHET)].

Substrate in series [3]: BHET
Briefly: Proxy for plastic degradation [Released monomer concentration (HPLC/LC-MS) (MHET+TPA)].

[4] abbreviates: pH 10.5, part of the chain shown.

B1: unnamed (protein)
chain: MNFPRASRLMQAAVLGGLMAVSAAATAQTNPYARGPNPTAASLEASAGPFTVRSFTVSRPSGYGAGTVYYPTNAGGTVGAIAIVPGYTARQSSIKWWGPRLASHGFVVITIDTNSTLDQPSSRSSQQMAALRQVASLNGTSSSPIYGKVDTARMGVMGWSMGGGGSLISAANNPSLKAAAPQAPWDSSTNFSSVTVPTLIFACENDSIAPVNSSALPIYDSMSRNAKQFLEINGGSHSCANSGNSNQALIGKKGVAWMKRFMDNDTRYSTFACENPNSTRVSDFRTANCS
With B1, the “Proxy for plastic degradation” value in series [1] (pH 8, part of the chain shown) came to 0 nM; in series [1] (pH 10, part of the chain shown), 0 nM; in series [1] (setting [4]) it was 0 nM; in series [2] (25 °C, part of the chain shown), 1300 nM; in series [2] (30 °C, part of the chain shown), 5300 nM; in series [2] (35 °C, part of the chain shown), 2200 nM. The “Proxy for plastic degradation” value in series [2] (40 °C, part of the chain shown) was found to be 0 nM; in series [2] (pH 9, 25 °C, part of the chain shown), 10.5 nM; in series [2] (pH 9, 30 °C, part of the chain shown) it was 12.9 nM; in series [2] (pH 9, 35 °C, part of the chain shown), 8 nM; in series [2] (pH 9, 40 °C, part of the chain shown) it was 5.5 nM; in series [2] (pH 9, part of the chain shown), 12700 nM. Further, the “Proxy for plastic degradation” value in series [2] (setting [4]) turned out to be 0 nM; in series [3] (pH 5, part of the chain shown), 0.58 µM; in series [3] (pH 5.5, part of the chain shown), 0.9 µM; in series [3] (pH 6, part of the chain shown), 1.51 µM; in series [3] (pH 6.5, part of the chain shown), 1.72 µM; in series [3] (pH 7, part of the chain shown) it was 1.72 µM. The “Proxy for plastic degradation” value is 0.95 µM in series [3] (pH 7.5, 25 °C, part of the chain shown); 1.75 µM in series [3] (pH 7.5, 30 °C, part of the chain shown); 1.04 µM in series [3] (pH 7.5, 35 °C, part of the chain shown); 0.65 µM in series [3] (pH 7.5, 40 °C, part of the chain shown); 0.3 µM in series [3] (pH 7.5, 45 °C, part of the chain shown); 0.17 µM in series [3] (pH 7.5, 50 °C, part of the chain shown). In addition, the “Proxy for plastic degradation” value in series [3] (pH 7.5, 55 °C, part of the chain shown) turned out to be 0.14 µM; in series [3] (pH 7.5, 60 °C, part of the chain shown), 0.16 µM; in series [3] (pH 8, part of the chain shown) it was 1.65 µM; in series [3] (pH 8.5, part of the chain shown) it was 1.47 µM; in series [3] (pH 9, part of the chain shown), 1.1 µM; in series [3] (pH 9.5, part of the chain shown), 0.47 µM.

B2: unnamed (protein)
chain: NPYARGPNPTAASLEASAGPFTVRSFTVSRPSGYGAGTVYYPTNAGGTVGAIAIVPGYTARQSSIKWWGPRLASHGFVVITIDTNSTLDQPSSRSSQQMAALRQVASLNGTSSSPIYGKVDTARMGVMGWSMGGGGSLISAANNPSLKAAAPQAPWDSSTNFSSVTVPTLIFACENDSIAPVNSSALPIYDSMSRNAKQFLEINGGSHSCAASGNSNQALIGKKGVAWMKRFMDNDTRYSTFACENPNSTRVSDFRTANCS
For B2, the “Proxy for plastic degradation” value in series [1] (pH 9) was 0 nM; in series [2] (pH 9), 1.5 nM.

B3: unnamed (protein)
chain: B2 chain with A180I, A212N
On to B3, for which the “Proxy for plastic degradation” value was 11 nM in series [1] (pH 9) and 13 nM in series [2] (pH 9).

B4: unnamed (protein)
chain: B2 chain with Q90A, A212N
Regarding B4, the “Proxy for plastic degradation” value turned out to be 6 nM in series [1] (pH 9) and 0.94 µM in series [3] (pH 7.5).

B5: unnamed (protein)
chain: B2 chain with W68L, A212N
With B5, the “Proxy for plastic degradation” value in series [1] (pH 9) stood at 0 nM; in series [2] (pH 9), 0 nM; in series [3] (pH 7.5) it was 0.18 µM.

B6: unnamed (protein)
chain: B2 chain with W156A, A212N
As for B6, the entries for the “Proxy for plastic degradation” value in series [1] (pH 9) and in series [2] (pH 9) were 2 nM and 1.5 nM, respectively.
